Results: patent US20220267415A1

Molecular target: SARS-CoV-2 spike protein, wild type, on live virus (SARS-CoV-2-mNG / USA-WA1/2020) (SARS-CoV-2) (UniProt P0DTC2)
Experiment: cell-based or functional assay

**Q.** With “IgG antibody carrying the VH and VL regions of Sotrovimab (S309)” as the substance, how does the Neutralization EC50 read?
**A.** 0.17 µg/mL
